The results in this text go back to patent US20090042235A1, “PHOTOREGULATED PEPTIDE, AND METHOD FOR REGULATION OF PEPTIDE-PROTEIN COMPLEX FORMATION USING THE PHOTOREGULATED PEPTIDE” (priority 2005, published 2009).

Bridge positions count the residues as written; N and C are the ends. Ends that are not written are not given here. DBMNB = photocleavable intramolecular cysteine cross-linker

The target of the assay is T1, PI3-Kα SH3 domain (Homo sapiens, UniProt P27986).
T1 construct: As a functional protein, an SH3 domain protein of PI3-Kα was used
As to the kind of experiment: Circular dichroism (CD) differential spectra of peptide / PI3-Kα SH3 domain mixtures: photoregulation of peptide-protein complex formation. Format: binding. On the procedure: As a functional protein, an SH3 domain protein of PI3-Kα was used. The PI3-Kα SH3 domain interacts with RLP1. The peptide having an intramolecular cross-linkage obtained in the manner as described above and the PI3-Kα SH3 domain were mixed in 10 mM phosphate buffer solution (pH 7.0), to obtain Mixture solution (I) in which the concentration of the peptide having an intramolecular cross-linkage was 100 microM and that of the PI3-Kα SH3 domain was 20 microM.
Then, Mixture solution (I) was irradiated with UV light. Irradiation was performed by using Minilite II manufactured by Continuum as a UV irradiator, with pulsed light at wavelength of 355 nm (third harmonic of Nd-YAG laser, pulse width 5 ns, 10 Hz, pulse intensity 4 mJ/cm^2) at 4° C. for 30 minutes. By UV irradiation, either one of the bonds between cysteine and DBMNB in the peptide having an intramolecular cross-linkage was cleaved. This was named Mixture solution (II).
Used sample solutions are shown below.
(i) Mixture solution (I) (ii) Mixture solution (II) (iii) Uncross-linked peptide RLP1 100 microM (10 mM phosphate buffer solution, pH 7.0) (iv) Peptide having an intramolecular cross-linkage (not irradiated with UV light) 100 microM (10 mM phosphate buffer solution, pH 7.0) (v) PI3-Kα SH3 domain 20 microM (10 mM phosphate buffer solution, pH 7.0) (vi) Mixture solution prepared by mixing an uncross-linked peptide RLP1 and a PI3-Kα SH3 domain in 10 mM phosphate buffer solution (pH 7.0), so that the concentration of the uncross-linked peptide is 100 microM and that of the PI3-Kα SH3 domain is 20 microM.
The horizontal axis of the graph represents wavelength of circularly polarized light (Wavelength/nm), and the vertical axis represents intensity of circular dichroism (Δθ/mdeg). In the graph of FIG. 7, “dark” represents different-al spectrum obtained by subtracting CD spectrum (iv) of the peptide having an intramolecular cross-linkage and CD spectrum (v) of the PI3-Kα SH3 domain from CD spectrum (i) of Mixture solution (I). Further, “light” represents differential spectrum obtained by subtracting CD spectrum (i) of Mixture solution (I) from CD spectrum (ii) of Mixture solution (II).
(CD spectra are sensitive to the conformation of chiral molecules.)

T1 sequence (P27986 3-79 limits assumed): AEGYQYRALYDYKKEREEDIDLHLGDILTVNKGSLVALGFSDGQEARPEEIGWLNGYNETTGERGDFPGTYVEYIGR

Regarding RKLPPRSK [RLP1, reference compound], where the note is “uncross-linked peptide 100 microM, SH3 domain 20 microM, 10 mM phosphate buffer pH 7.0, no irradiation”, the “differential CD spectrum of mixture with PI3-Kα SH3 domain minus peptide and SH3 domain spectra (peak ascribable to formation of complex)” value is listed as “positive peak was observed around 220 nm”.

Consider “peptide having an intramolecular cross-linkage: RLP1-2C (Cys Arg Lys Leu Pro Pro Arg Ser Lys Cys) intramolecularly cross-linked between its cysteines via photocleavable DBMNB, cyclic (CRKLPPRSKC; linker 1-10 via DBMNB)”, for which, under “Mixture solution (I), not irradiated, peptide 100 microM, SH3 domain 20 microM, 10 mM phosphate buffer pH 7.0, room temperature”, the “interaction with specific recognizing site of the PI3-Kα SH3 domain (differential CD spectrum "dark")” value is recorded as “no interaction”. For the same substance, the “differential CD spectrum "light" (Mixture solution (II) minus Mixture solution (I))” value (after UV irradiation 355 nm pulsed light, 4° C., 30 minutes, peptide 100 microM, SH3 domain 20 microM, pH 7.0) is given as “positive peak was observed around 220 nm”. Besides, the “complex formation with PI3-Kα SH3 domain” value (after UV irradiation (cyclic structure dissociated)) is on record as “forms a complex”.
